Data from patent US20100254896A1.

Molecular target: αvβ3 receptors on M21 human melanoma cells (human) (UniProt P06756)
Experiment: cell-based or functional assay

Sequence of UniProt P06756 (P06756 31-1048, chain 1 of 2): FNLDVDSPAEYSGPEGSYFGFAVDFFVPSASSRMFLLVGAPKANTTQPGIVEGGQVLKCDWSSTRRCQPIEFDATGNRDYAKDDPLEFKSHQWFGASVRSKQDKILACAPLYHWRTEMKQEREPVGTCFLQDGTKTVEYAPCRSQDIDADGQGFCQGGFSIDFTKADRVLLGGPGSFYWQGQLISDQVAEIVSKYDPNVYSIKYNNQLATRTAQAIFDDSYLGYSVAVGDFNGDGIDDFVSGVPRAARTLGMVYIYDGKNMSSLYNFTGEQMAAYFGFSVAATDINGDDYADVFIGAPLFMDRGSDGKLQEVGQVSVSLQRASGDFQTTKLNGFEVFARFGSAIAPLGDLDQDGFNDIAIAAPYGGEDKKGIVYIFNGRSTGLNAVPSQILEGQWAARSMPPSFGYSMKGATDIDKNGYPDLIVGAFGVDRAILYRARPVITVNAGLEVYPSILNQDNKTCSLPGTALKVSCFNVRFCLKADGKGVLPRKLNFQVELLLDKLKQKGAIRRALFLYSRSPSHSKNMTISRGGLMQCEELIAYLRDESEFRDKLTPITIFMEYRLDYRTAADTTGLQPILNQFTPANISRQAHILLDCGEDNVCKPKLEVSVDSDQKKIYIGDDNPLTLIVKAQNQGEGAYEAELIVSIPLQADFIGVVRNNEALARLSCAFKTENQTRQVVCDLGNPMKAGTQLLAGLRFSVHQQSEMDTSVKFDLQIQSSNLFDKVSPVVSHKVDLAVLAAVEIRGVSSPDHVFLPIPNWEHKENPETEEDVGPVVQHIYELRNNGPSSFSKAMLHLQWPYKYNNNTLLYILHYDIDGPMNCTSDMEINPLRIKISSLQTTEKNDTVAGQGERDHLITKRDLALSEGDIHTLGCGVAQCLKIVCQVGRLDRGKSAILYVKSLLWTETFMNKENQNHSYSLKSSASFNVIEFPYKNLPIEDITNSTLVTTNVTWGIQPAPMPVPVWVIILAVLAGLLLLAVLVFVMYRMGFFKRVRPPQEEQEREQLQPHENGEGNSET
Sequence of UniProt P06756 (P05106 27-788, chain 2 of 2, further chain): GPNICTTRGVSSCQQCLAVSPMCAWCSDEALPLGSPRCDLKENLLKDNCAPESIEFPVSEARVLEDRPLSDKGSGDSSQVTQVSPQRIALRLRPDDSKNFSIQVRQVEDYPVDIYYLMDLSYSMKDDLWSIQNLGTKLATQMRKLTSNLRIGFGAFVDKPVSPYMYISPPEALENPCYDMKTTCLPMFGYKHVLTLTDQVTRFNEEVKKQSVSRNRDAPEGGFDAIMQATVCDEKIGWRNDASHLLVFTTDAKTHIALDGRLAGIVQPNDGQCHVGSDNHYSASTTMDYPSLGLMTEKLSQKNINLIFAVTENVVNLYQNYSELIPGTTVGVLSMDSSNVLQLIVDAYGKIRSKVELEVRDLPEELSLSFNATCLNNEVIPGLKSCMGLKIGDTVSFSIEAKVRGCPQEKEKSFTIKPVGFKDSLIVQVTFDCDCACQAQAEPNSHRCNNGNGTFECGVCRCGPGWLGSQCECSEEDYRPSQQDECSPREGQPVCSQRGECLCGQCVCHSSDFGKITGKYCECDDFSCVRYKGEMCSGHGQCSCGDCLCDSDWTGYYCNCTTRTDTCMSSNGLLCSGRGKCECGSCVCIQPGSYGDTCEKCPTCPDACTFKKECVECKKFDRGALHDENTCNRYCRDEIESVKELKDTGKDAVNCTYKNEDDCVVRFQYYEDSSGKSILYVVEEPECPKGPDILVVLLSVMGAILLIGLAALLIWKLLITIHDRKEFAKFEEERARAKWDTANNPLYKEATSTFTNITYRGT

RGD (targeted null AAVP, Example 2) (peptide)
phage internalization assay, pfu/µl: 14000 pfu/µl

RGDTNF-α (targeted TNF-α expressing AAVP) (peptide)
phage internalization assay, pfu/µl: 21500 pfu/µl

fd (non-targeted null AAVP)
phage internalization assay, pfu/µl: 300 pfu/µl

fdTNF-α (non-targeted TNF-α expressing AAVP)
phage internalization assay, pfu/µl: 600 pfu/µl
